Reference: paper PMC5812989, “Evaluation of HER2-specific peptide ligand for its employment as radiolabeled imaging probe” (Scientific Reports, 2018)
Where a SMILES comes first, the peptide text is derived from it. Where no end group is shown, it is not given here. The star is where a group is joined. DTPA = O=C(O)CN(CCN(CC(=O)O)CC(=O)O)CCN(CC(=O)O)CC(=O)*

What was measured:
[1] = test system: HER2-expressing BT474 cells; test: LigandTracer / InteractionMap kinetics of binding to living HER2-expressing cells; design: species or system human; conditions: 1:2 interaction model, room temperature, 4, 12 and 36 nM, read-out: affinity, weaker binding site (low affinity interaction)
Procedure: For cell studies, the HER2-expressing breast carcinoma cell line BT474 (from ATCC) was used. The cell line was cultured in RPMI medium (Flow Irvine, UK) supplemented with 10% fetal calf serum (Sigma, USA), 2 mM L-glutamine and PEST (penicillin 100 IU/mL and 100 μg/mL streptomycin), all from Biokrom Kg, Germany.
Cells from the human breast carcinoma cell line BT474 were seeded on a local area of a cell culture dish (NunclonTM, Size 100620, NUNC A/S, Roskilde, Denmark), as described by Björke and Andersson[63]. The binding of ^111In-DTPA-A9 to living cells was monitored in real-time at room temperature using LigandTracer Yellow, using method established by Björke and Andersson[63]. In brief, the cell culture dish was placed on the sloping and rotating cell dish holder in LigandTracer Yellow, followed by a continuous monitoring of the radioactivity level along the rim of the dish. If the labelled peptide binds to the cells, an elevated signal will be recorded when the cells pass by the detector. […] Binding and dissociation curves were analyzed by InteractionMap software as described by Björkelund et al. to calculate affinity of ^111In-DTPA-A9 binding to living HER2-expressing cells.
Additionally, specificity of ^111In-DTPA-A9 binding to HER2 expressing cells was evaluated using pre-saturation of receptors by trastuzumab and by using ^111In-labeled scrambled DTPA-A9 (^111In- DTPA-S-A9). […]

[2] = In vitro peptide stability in serum (HPLC); format: in vitro ADME; conditions: during one hour; 0.5 mg/mL, RPMI with 10% FBS, 37 °C
Procedure: Figure S4: In vitro Peptide Stability in Serum. A9 modified peptides at concentration of 0.5 mg/mL were dissolved in RPMI containing 10% of FBS (fetal bovine serum) and incubated at 37 °C. Samples (50 μL) were taken regularly (t = 0, 0.5, 1, 2, 3, 6, and 24 h) and mixed with 100 μL of CH3CH2OH (96%), for precipitation of serum proteins. The cloudy reaction sample is cooled (4 °C) for 15 min and then spin at 16,000 rpm for 2 min, to pellet the precipitated serum proteins^1. The chromatographic analysis of samples (30 μL injected for each injection) were performed on an Alliance HT WATERS 2795 system, equipped with a PDA WATERS detector 2996 using a […] C18 Waters xBridge (3 μm, 4.6 x 50 mm) column, with a linear gradient from 5% to 70% of 0.05% TFA in CH3CN (Solvent B) over 20 min at a flow rate of 0.2 mL/min. […] Results are mean of three independent experiments performed in duplicate.

[3] = design: species or system BALB/c nu/nu mice; conditions: mouse, in vivo
Procedure: Four BALB/C nu/nu mice were used for the biodistribution studies. At the time of experiment, the average animal weight was 20.5 ± 0.9 g. Animals were injected intravenously (tail vein) with 3 µg (30 kBq) of ^111In-DTPA-A9 in 100 µL PBS. Since DTPA-A9 peptide resulted stable to serum proteolytic degradation in a range of 90 minutes (for details see Supplementary Information Fig. S6), at 1 hour after injection, a mixture of Ketalar-Rompun (20 µL of solution per gram body weight; Ketalar: 10 mg/mL; Rompun: 1 mg/mL) was injected intraperitonealy, and the mice were euthanized by a heart puncture using a syringe, pre-washed with diluted heparin (5000 IE/mL). Blood as well as brain, stomach, pancreas, lung, liver, spleen, kidneys, samples of muscle and bone, gastrointestinal tract (with its content) and remaining carcass were collected in pre-weighed plastic vials. Organs and tissue samples were weighed and measured for radioactivity using an automatic gamma counter. The tissue uptake values were calculated as per cent injected activity per gram of tissue (% ID/g) and per whole sample (% ID/sample). The gastrointestinal tract and the carcass uptakes were calculated only as % ID per whole sample. The radioactivity in the gastrointestinal tract with its content was used as a measure of hepatobiliary excretion.

Q: For “^111In-DTPA-SA9: 111In-labeled scrambled conjugate, same amino acids as A9 but in a different order ({DTPA}-WAVQNTDAV-NH2; also: DTPA complexed with 111In)”, which Kd [1] is on record?
A: Its Kd is 103 nM.

Q: Which “stability on incubation in vitro with blood serum” value [2] does the source give for QDVNTAVAW-NH2 [A9] here?
A: The value was “high stability”.

Q: With `CC(C)[C@H](NC(=O)[C@H](C)NC(=O)[C@@H](NC(=O)[C@H](CC(N)=O)NC(=O)[C@@H](NC(=O)[C@H](CC(=O)O)NC(=O)[C@H](CCC(N)=O)NC(=O)CN(CCN(CCN(CC(=O)O)CC(=O)O)CC(=O)O)CC(=O)O)C(C)C)[C@@H](C)O)C(=O)N[C@@H](C)C(=O)N[C@@H](Cc1c[nH]c2ccccc12)C(N)=O` [^111In-DTPA-A9, metal not drawn] ({DTPA}-QDVNTAVAW-NH2) as the molecule, how does the “radioactivity in the gastrointestinal tract with content” value [3] read?
A: Its value is “approximately 1 % of injected activity”.

Q: And the “uptake, blood” value ([3]; iv, 1 h)?
A: Its value is 0.24 ± 0.04 % ID/g.

Q: And the “uptake, bone” value ([3]; iv, 1 h)?
A: Its value is 0.16 ± 0.13 % ID/g.

Q: And the “uptake, brain” value ([3]; iv, 1 h)?
A: Its value is 0.03 ± 0.03 % ID/g.

Q: And the “uptake, liver” value ([3]; iv, 1 h)?
A: The value was 0.44 ± 0.04 % ID/g.

Q: What about the “uptake, lung” value ([3]; iv, 1 h) of the same molecule?
A: Its value is 0.5 ± 0.3 % ID/g.

Q: And the “uptake, muscle” value ([3]; iv, 1 h)?
A: Its value is 0.01 ± 0.01 % ID/g.

Q: And the “uptake, pancreas” value ([3]; iv, 1 h)?
A: Its value is 0.13 ± 0.03 % ID/g.

Q: What about the “uptake, spleen” value ([3]; iv, 1 h) of the same molecule?
A: The value was 0.22 ± 0.01 % ID/g.

Q: And the “uptake, stomach” value ([3]; iv, 1 h)?
A: The value was 0.27 ± 0.07 % ID/g.
